Where a chain is given by its changes, count along the chain named.
B1: humanized clone 53 HuAntibody 23 (antibody, V domains shown)
VH: EVQLLESGGGLVQPGGSLRLSCAASGFTFTSYAMSWVRQAPGKGLEWVAVISHGGTYTYYADSVKGRFTISRDNAKNTLYLQMNSLRAEDTAVYYCARHPIYSGNYQGYFDYWGQGTLVTVSS
VL: DIQLTQSPSFLSASVGDRVTITCRASSGVNYLYWYQQKPGKAPKLWIYFTSTLAPGVPSRFSGSGSGNEYTLTISSLQPEDFATYYCQQFTSSPYTFGGGTKLEIK
notes: humanized anti-human CXCR3 mAb
B2: humanized clone 53 HuAntibody 26 (antibody, V domains shown)
VH: B1 VH
VL: B1 VL with G99Q
notes: as for B1
B3: humanized clone 53 HuAntibody 24 (antibody, V domains shown)
VH: B1 VH with V50T, A61P, V93M
VL: B1 VL
notes: as for B1
B4: humanized clone 53 HuAntibody 33 (antibody, V domains shown)
VH: B1 VH with V50T, A61P
VL: B1 VL with P55S
notes: as for B1
B5: humanized clone 53 HuAntibody 25 (antibody, V domains shown)
VH: B1 VH with V50T, A61P
VL: B1 VL
notes: as for B1
B6: humanized clone 53 HuAntibody 29 (antibody, V domains shown)
VH: B1 VH with V50T, A61P
VL: B1 VL with G99Q
notes: as for B1
B7: humanized clone 53 HuAntibody 27 (antibody, V domains shown)
VH: B1 VH with V50T, A61P, V93M
VL: B1 VL with G99Q
notes: as for B1
B8: humanized clone 53 HuAntibody 35 (antibody, V domains shown)
VH: B1 VH with V50T, A61P, V93M
VL: B1 VL with P55S, G99Q
notes: as for B1
B9: humanized clone 53 HuAntibody 34 (antibody, V domains shown)
VH: B1 VH
VL: B1 VL with P55S, G99Q
notes: as for B1
B10: humanized clone 53 HuAntibody 30 (antibody, V domains shown)
VH: B1 VH
VL: B1 VL with P55S
notes: as for B1
B11: humanized clone 53 HuAntibody 31 (antibody, V domains shown)
VH: B1 VH with V50T, A61P, V93M
VL: B1 VL with P55S
notes: as for B1

Target: T1, recombinant human CXCR3 (human, UniProt P49682 1-368, limits assumed)
T1 construct: also called C-X-C motif chemokine receptor 3
T1 sequence (looked up): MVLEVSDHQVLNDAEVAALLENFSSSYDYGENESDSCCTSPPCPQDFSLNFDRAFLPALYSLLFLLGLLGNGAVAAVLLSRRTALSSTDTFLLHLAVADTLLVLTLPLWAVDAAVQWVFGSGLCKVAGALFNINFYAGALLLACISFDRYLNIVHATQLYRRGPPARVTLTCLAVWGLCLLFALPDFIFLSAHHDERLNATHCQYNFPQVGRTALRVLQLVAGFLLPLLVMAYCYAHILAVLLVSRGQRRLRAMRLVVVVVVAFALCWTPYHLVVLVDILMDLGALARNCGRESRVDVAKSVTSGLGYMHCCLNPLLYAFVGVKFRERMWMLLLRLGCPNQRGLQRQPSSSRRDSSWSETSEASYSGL
Experiment: binding kinetics; method and antigen not given

Binder	Kd [nM]	koff [s⁻¹]	kon [M⁻¹ s⁻¹]
B1	0.322	2.45e-05	75600
B2	0.537	5.46e-05	101000
B3	0.0614	6.16e-06	101000
B4	0.656		
B5	0.623	6.21e-05	99500
B6	0.303	3.5e-05	115000
B7	0.0737	8.34e-06	113000
B8	0.0456	4.73e-06	102000
B9	1.03	9.19e-05	88900
B10	1.34	0.000126	93700
B11	0.449	5e-05	111000

From patent US20180244787A1 (Sanofi, published 2018)
